Test results reported in PMC10630626.
Blank lines part the entries; values can stand above or below the binder they belong to.

Columns and labels:
Palivizumab [1] = assay: ELISA; competitive: Palivizumab coated, HRP-conjugated anti-idiotypic IgG (AbD23967/HCA262P, 0.2 μg/ml; 1 nM in the legend) co-incubated with 0.1-100 nM soluble AIP1-4^VHH, 1% BSA in PBS, room temperature
[2] = target: Palivizumab single-chain variable fragment, light-heavy order, fused to IgG1 Fc (P^scFvLHFc)
Palivizumab [3] = assay: SPR; Palivizumab (about 1000 RU) or P^scFvFc variants (about 500 RU) captured on a Protein A chip, AIP^VHH as analyte; Biacore X100, 25 °C, PBS pH 7.4 with 0.05% P20, 30 μl/min, 120 s injection, 500 s dissociation, 1:1 binding model
[4] = target: Palivizumab single-chain variable fragment, heavy-light order, fused to IgG1 Fc (P^scFvHLFc); assay: as above
[5] = target: Palivizumab single-chain variable fragment, light-heavy order, fused to IgG1 Fc (P^scFvLHFc); assay: as above
[6] = target: anti-idiotypic nanobody for Palivizumab 1 (AIP1^VHH), soluble
[7] = target: anti-idiotypic nanobody for Palivizumab 2 (AIP2^VHH), soluble
[8] = target: anti-idiotypic nanobody for Palivizumab 1 (AIP1^VHH), soluble; remark: listed apart in the source
[9] = target: anti-idiotypic nanobody for Palivizumab 3 (AIP3^VHH), soluble
[10] = target: anti-idiotypic nanobody for Palivizumab 3 (AIP3^VHH), soluble; remark: listed apart in the source
[11] = target: anti-idiotypic nanobody for Palivizumab 1 (AIP1^VHH), soluble; remark: listed apart in the source
[12] = target: anti-idiotypic nanobody for Palivizumab 3 (AIP3^VHH), soluble; remark: listed apart in the source
[13] = target: anti-idiotypic nanobody for Palivizumab 2 (AIP2^VHH), soluble; remark: listed apart in the source

IC50 (Palivizumab [1]): 48.5 nM
IC50 of soluble AIP3^VHH (0.49-1000 nM) for proliferation of Ba/F3-gp130-AIP1^VHHgp130 cells induced by 2 nM P^scFvLHFc; blocks P^scFvLHFc with AIP1^VHHgp130 [2]: 364 nM
Kd (Palivizumab [3]): 1.11 nM
B1: anti-idiotypic nanobody for Palivizumab 3 (AIP3^VHH), soluble (VHH)
VHH: DVQLQESGGGLVQPGGSLRLSCVASGRTWSIYAMGWFRQAPGKEREFVTAISISRSESVTHYAESVTGRFTISRDNAKNTLHLQMNSLKPEDTAVYFCAADRRSIDPHHTIDYWGQGTQVTVSS

IC50 (Palivizumab [1]): 1.76 nM
IC50 of soluble AIP1^VHH (0.49-1000 nM) for proliferation of Ba/F3-gp130-AIP1^VHHgp130 cells induced by 2 nM P^scFvLHFc; blocks P^scFvLHFc with AIP1^VHHgp130 [2]: 2.79 nM
Kd (Palivizumab [3]): 0.026 nM
koff (Palivizumab [3]): 5.9e-05 s⁻¹
kon (Palivizumab [3]): 2.3e+06 M⁻¹ s⁻¹
Kd [4]: 0.0272 nM
Kd [5]: 0.0098 nM
B2: anti-idiotypic nanobody for Palivizumab 1 (AIP1^VHH), soluble (VHH)
VHH: DVQLQESGGGLVQAGGSLRLSCVASGLTFRYDMGWFRQAPGKEREFVAQITWRGGSATYYADSVKGRFTIARDIAKNAVYLQMNSLKPEDTAVYYCAAAYGSAGYRPDEYDSWGQGTQVTVSS

IC50 (Palivizumab [1]): 4.4 nM
IC50 of soluble AIP2^VHH (0.49-1000 nM) for proliferation of Ba/F3-gp130-AIP1^VHHgp130 cells induced by 2 nM P^scFvLHFc; blocks P^scFvLHFc with AIP1^VHHgp130 [2]: 83.1 nM
Kd (Palivizumab [3]): 2.16 nM
B3: anti-idiotypic nanobody for Palivizumab 2 (AIP2^VHH), soluble (VHH)
VHH: DVQLQESGGGLVQAGGSLRLSCAASESLFRLNAMGWYRQAPGKQRELVAGITTSGDAVYADSVKGRFTISRDSAKNTVYLQTNNLKPEDTAVYYCNVRPRAGTWENARIGVWGQGTQVTVSS

IC50 of Palivizumab (0.49-1000 nM) for proliferation of Ba/F3-gp130-AIP1^VHHgp130 cells induced by 2 nM P^scFvLHFc; blocks P^scFvLHFc with AIP1^VHHgp130 [6]: 8.28 nM
molar excess of Palivizumab over P^scFvLHFc (2 nM) for complete suppression of STAT3 phosphorylation in Ba/F3-gp130-AIP1^VHHgp130 cells (fold molar excess) [6]: > 8
EC50 of proliferation of Ba/F3-gp130-AIP2^VHHgp130 cells, Palivizumab cross-linked with a 6-fold molar excess of hFc-mAb [7]: 48.8 nM
EC50 of proliferation of Ba/F3-gp130-AIP1^VHHgp130 cells, Palivizumab cross-linked with a 6-fold molar excess of hFc-mAb [8]: 215 nM
EC50 of proliferation of Ba/F3-gp130-AIP3^VHHgp130 cells, Palivizumab cross-linked with a 6-fold molar excess of hFc-mAb [9]: 2.71 nM
proliferation of Ba/F3-gp130 cells expressing AIP3^VHHgp130, Palivizumab 0.033-66 nM, percent of the maximal proliferation with HIL-6 [9]: 20%
B4: Palivizumab (antibody, V domains shown)
VH: QVTLRESGPALVKPTQTLTLTCTFSGFSLSTSGMSVGWIRQPPGKALEWLADIWWDDKKDYNPSLKSRLTISKDTSKNQVVLKVTNMDPADTATYYCARSMITNWYFDVWGAGTTVTVSS
VL: DIQMTQSPSTLSASVGDRVTITCKCQLSVGYMHWYQQKPGKAPKLLIYDTSKLASGVPSRFSGSGSGTEFTLTISSLQPDDFATYYCFQGSGYPFTFGGGTKLEIK

caspase 3/7 activity in Ba/F3-gp130-AIP3^VHHFas cells, dimeric P^scFvLHFc 0.1-100 nM, percent of the activity with cross-linked 2× P^scFvLHFc [10]: < 50%
EC50 of proliferation of Ba/F3-gp130-AIP1^VHHgp130 cells, P^scFvLHFc 0.00563-5.77 nM (Fig. 6H) [11]: 0.38 nM
EC50 of proliferation of Ba/F3-gp130 cells expressing AIP1^VHHgp130, P^scFvLHFc 0.00053-93.5 nM (Fig. 6B) [11]: 0.21 nM
lowest concentration that induced STAT3 phosphorylation in Ba/F3-gp130-AIP1^VHHgp130 cells (0.19 to 6 nM tested, Fig. 6I) [11]: 1.5 nM
EC50 of proliferation of Ba/F3-gp130 cells expressing AIP3^VHHgp130, P^scFvLHFc 0.00053-93.5 nM (Fig. 6B) [12]: 6.61 nM
B5: Palivizumab single-chain variable fragment, light-heavy order, fused to IgG1 Fc (P^scFvLHFc) (Fc fusion)
VH: B4 VH
VL: B4 VL

EC50 of proliferation of Ba/F3-gp130-AIP2^VHHgp130 cells, P^scFvHLFc 0.00056-100 nM (Fig. 6E) [13]: 0.7 nM
EC50 of proliferation of Ba/F3-gp130-AIP1^VHHgp130 cells, P^scFvHLFc 0.00056-100 nM (Fig. 6E) [11]: 0.4 nM
EC50 of proliferation of Ba/F3-gp130-AIP1^VHHgp130 cells, P^scFvHLFc 0.00563-5.77 nM (Fig. 6H) [11]: 0.5 nM
lowest concentration that induced STAT3 phosphorylation in Ba/F3-gp130-AIP1^VHHgp130 cells (0.19 to 6 nM tested, Fig. 6I) [11]: 0.19 nM
EC50 of proliferation of Ba/F3-gp130-AIP3^VHHgp130 cells, P^scFvHLFc 0.00056-100 nM (Fig. 6E) [12]: 9.1 nM
B6: Palivizumab single-chain variable fragment, heavy-light order, fused to IgG1 Fc (P^scFvHLFc) (Fc fusion)
VH: B4 VH
VL: B4 VL

Kd (Palivizumab [3]): 3.14 nM
B7: anti-idiotypic nanobody for Palivizumab 4 (AIP4^VHH), soluble (VHH)
VHH: DVQLQESGGGLVQAGGSLRLSCVASGRAFSRYDMGWFRQAPGKEREFVAQISWRGGSATSYADTVKGRFTIARDNAKNTVYLQMNSLKPEDTAVYYCNARTPTLSSWGQGTQVTVSS
